# From publication PMC10450202, “Updated protein domain annotation of the PARP protein family sheds new light on biological function”
# T1: PARP14 WWE-ART (human, UniProt Q460N5 1459-1801)
# T1 sequence: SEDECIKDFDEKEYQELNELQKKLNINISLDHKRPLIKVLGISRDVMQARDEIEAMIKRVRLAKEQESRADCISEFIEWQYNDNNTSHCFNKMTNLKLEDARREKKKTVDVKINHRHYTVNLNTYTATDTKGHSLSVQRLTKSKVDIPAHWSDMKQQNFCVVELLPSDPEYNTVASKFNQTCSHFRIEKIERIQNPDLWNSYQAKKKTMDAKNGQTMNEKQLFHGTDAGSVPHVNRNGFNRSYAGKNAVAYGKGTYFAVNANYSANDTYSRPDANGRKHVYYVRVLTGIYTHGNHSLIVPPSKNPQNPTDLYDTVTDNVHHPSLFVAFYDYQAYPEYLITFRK
# T2: PARP14 KH1-KH2 (human, UniProt Q460N5 316-468)
# T2 sequence: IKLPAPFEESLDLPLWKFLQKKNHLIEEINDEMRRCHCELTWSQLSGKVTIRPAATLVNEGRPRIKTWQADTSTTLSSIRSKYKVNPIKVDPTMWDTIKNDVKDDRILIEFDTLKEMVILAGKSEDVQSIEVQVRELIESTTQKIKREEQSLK
# T3: PARP14 KH8-WWE-ART (human, UniProt Q460N5 1453-1801)
# T3 sequence: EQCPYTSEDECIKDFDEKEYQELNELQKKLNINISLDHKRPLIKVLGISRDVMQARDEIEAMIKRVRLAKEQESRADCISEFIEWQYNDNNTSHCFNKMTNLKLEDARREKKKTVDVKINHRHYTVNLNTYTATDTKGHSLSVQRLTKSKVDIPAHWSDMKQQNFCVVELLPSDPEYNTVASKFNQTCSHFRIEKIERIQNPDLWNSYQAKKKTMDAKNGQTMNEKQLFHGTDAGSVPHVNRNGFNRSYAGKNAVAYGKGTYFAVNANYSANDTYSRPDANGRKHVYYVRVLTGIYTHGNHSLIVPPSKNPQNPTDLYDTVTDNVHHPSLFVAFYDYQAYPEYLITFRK
# What was measured:
# [1] = target: PARP1 full-length (human, UniProt P09874 2-1014, V762A); assay: NMR; 35.5 uM protein, 40 uM DNA; 15N-1H TROSY, 25 C; EMSA: 20 mM HEPES-KOH pH 7.6, 5 mM MgCl2, 1 mM DTT, 20% glycerol, 1 h room temperature, 6% native PAGE; NMR: 10 mM sodium phosphate, 222 mM NaCl, 2.7 mM KCl, 2; details: protein: recombinant; tags: N-terminal His6 (MKHHHHHHKMQ); dumbbell: two hairpins, mimics single-strand break
# [2] = target: T1, PARP14 WWE-ART; assay: EMSA; 0.5 uM RNA, 1-5 uM protein, 5 mM Mg2+; EMSA: 20 mM HEPES-KOH pH 7.6, 5 mM MgCl2, 1 mM DTT, 20% glycerol, 1 h room temperature, 6% native PAGE; NMR: 10 mM sodium phosphate, 222 mM NaCl, 2.7 mM KCl, 2; details: protein: recombinant; label: 5' Cy3; single strand
# [3] = target: T2, PARP14 KH1-KH2; assay: EMSA; 0.5 uM RNA, 1-5 uM protein, 5 mM Mg2+; efficient binding at micromolar concentrations; EMSA: 20 mM HEPES-KOH pH 7.6, 5 mM MgCl2, 1 mM DTT, 20% glycerol, 1 h room temperature, 6% native PAGE; NMR: 10 mM sodium phosphate, 222 mM NaCl, 2.7 mM KCl, 2; details: protein: recombinant; label: 5' Cy3; single strand
# [4] = target: T3, PARP14 KH8-WWE-ART; assay: EMSA; 0.5 uM RNA, 1-5 uM protein, 5 mM Mg2+; possible slight nuclease contamination; EMSA: 20 mM HEPES-KOH pH 7.6, 5 mM MgCl2, 1 mM DTT, 20% glycerol, 1 h room temperature, 6% native PAGE; NMR: 10 mM sodium phosphate, 222 mM NaCl, 2.7 mM KCl, 2; details: protein: recombinant; label: 5' Cy3; single strand
# Sequence of PARP1 full-length (P09874 2-1014 V762A): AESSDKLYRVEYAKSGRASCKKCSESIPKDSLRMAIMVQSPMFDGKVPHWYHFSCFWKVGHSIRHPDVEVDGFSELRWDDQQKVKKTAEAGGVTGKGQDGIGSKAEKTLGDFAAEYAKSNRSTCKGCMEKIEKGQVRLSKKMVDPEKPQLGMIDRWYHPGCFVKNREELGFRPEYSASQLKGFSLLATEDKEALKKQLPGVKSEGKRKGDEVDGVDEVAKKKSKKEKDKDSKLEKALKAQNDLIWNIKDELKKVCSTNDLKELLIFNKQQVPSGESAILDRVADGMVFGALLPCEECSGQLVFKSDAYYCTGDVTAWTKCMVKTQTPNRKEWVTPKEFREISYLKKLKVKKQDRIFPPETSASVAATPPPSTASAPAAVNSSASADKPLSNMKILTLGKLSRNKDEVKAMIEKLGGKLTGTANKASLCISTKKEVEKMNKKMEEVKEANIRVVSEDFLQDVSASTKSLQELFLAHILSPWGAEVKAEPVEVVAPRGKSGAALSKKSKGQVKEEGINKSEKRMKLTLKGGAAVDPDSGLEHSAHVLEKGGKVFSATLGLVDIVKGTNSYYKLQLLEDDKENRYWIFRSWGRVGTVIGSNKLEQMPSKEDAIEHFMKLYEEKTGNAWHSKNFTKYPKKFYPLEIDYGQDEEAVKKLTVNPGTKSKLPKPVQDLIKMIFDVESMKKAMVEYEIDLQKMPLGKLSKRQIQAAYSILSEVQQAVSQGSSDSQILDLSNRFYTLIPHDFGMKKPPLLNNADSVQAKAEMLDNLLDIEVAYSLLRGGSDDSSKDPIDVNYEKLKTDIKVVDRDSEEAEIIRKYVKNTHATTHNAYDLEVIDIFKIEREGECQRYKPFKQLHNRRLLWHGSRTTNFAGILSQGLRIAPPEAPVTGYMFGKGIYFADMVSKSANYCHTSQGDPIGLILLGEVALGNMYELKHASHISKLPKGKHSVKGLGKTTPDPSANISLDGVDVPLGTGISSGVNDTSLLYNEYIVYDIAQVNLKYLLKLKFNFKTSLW
Binder,binding result [1],binding result [2],binding result [3],binding result [4]
"GCTGGCTTCGTAAGAAGCCAGCTCGCGGTCAGCTTGCTGACCGCG (structured_DNA, 5' phosphate) [45-nt DNA dumbbell]",binds,–,–,–
GUGGCGCGGAGACUUAGAGAA (ssRNA) [E21 RNA],–,no binding,binds,binds
